# T1: hGAP43 (purified, unlabeled human growth-associated protein of 43 kDa) (human, UniProt P17677 1-238)
# T1 construct: growth-associated protein of 43 kDa (GAP43, neuromodulin), human; also called unlabeled GAP43; neuromodulin; source: purified (details in Supplementary Methods)
# T1 sequence (looked up): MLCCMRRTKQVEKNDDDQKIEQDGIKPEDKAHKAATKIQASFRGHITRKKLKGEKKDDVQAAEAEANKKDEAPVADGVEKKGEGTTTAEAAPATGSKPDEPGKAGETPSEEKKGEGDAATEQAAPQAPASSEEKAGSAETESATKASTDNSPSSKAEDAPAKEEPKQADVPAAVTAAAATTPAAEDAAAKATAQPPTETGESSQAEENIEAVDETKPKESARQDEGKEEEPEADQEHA
# Legend:
# [1] = target: CB1R (type-1 cannabinoid receptor) (UniProt P21554); assay: BRET saturation, CB1R-RLuc and GFP-GAP43; settings: reference: GFP-GAP43 wild type; sites S41
# [2] = target: T1, hGAP43 (purified, unlabeled human …); assay: fluorescence polarisation; fixed concentration of 5-IAF-labeled hCB1R-CTD, increasing concentrations of unlabeled hGAP43; 3 independent experiments; settings: both partners purified
# [3] = target: T2, RLuc-tagged CB1R (UniProt P21554 1-472); assay: FRET or BRET; BRET saturation in live HEK293T cells expressing CB1R-RLuc and increasing amounts of GFP-GAP43 forms; 3 independent experiments; settings: partners not purified
# T2 construct: type-1 cannabinoid receptor (CB1R); also called CB1R-RLuc; source: HEK293T, transfected, in live cells
BRET50 (RLuc/GFP ratio that gives half-maximal BRET effect) [3],Molecule,further results
,GAP43 (growth-associated protein of 43 kDa; neuromodulin) (from UniProt P17677) GFP-GAP43 S41D,other: BRET50 (RLuc/GFP ratio giving half-maximal BRET) [1]: stronger; reference 15.18 ± 4.53
,"5-(iodoacetamido)fluorescein-labeled hCB1R-CTD (domain or fragment, human, UniProt P21554 408-472, looked up, also: 5-(iodoacetamido)fluorescein label, position not given here, type-1 cannabinoid receptor (CB1R), human, C-terminal intracellular domain, amino acids 408-472; protein expression and purification are in the Supplementary Methods; also called 5-IAF-labeled CB1R-CTD; source: purified (recombinant; details in Supplementary Methods)) FRSMFPSCEGTAQPLDNSMGDSDCLHKHANNAASVHRAAESCIKSTVKIAKVTMSVSTDTSAEAL",Kd [2]: 38.2 µM
15.2,"GFP-GAP43(WT) (natural protein, UniProt P17677 1-238, looked up, growth-associated protein of 43 kDa (GAP43), wild type; In the co-IP and DMR experiments the text writes GAP43(WT) without GFP; source: HEK293T, transfected, in cells or lysate) MLCCMRRTKQVEKNDDDQKIEQDGIKPEDKAHKAATKIQASFRGHITRKKLKGEKKDDVQAAEAEANKKDEAPVADGVEKKGEGTTTAEAAPATGSKPDEPGKAGETPSEEKKGEGDAATEQAAPQAPASSEEKAGSAETESATKASTDNSPSSKAEDAPAKEEPKQADVPAAVTAAAATTPAAEDAAAKATAQPPTETGESSQAEENIEAVDETKPKESARQDEGKEEEPEADQEHA",
7.08,"GFP-GAP43(S41D) (natural protein, UniProt P17677 1-238, looked up, growth-associated protein of 43 kDa (GAP43) with the phospho-mimetic point mutation S41D; In the co-IP and DMR experiments the text writes GAP43(S41D) without GFP; also called phospho-mimetic GAP43; source: HEK293T, transfected, in cells or lysate) MLCCMRRTKQVEKNDDDQKIEQDGIKPEDKAHKAATKIQADFRGHITRKKLKGEKKDDVQAAEAEANKKDEAPVADGVEKKGEGTTTAEAAPATGSKPDEPGKAGETPSEEKKGEGDAATEQAAPQAPASSEEKAGSAETESATKASTDNSPSSKAEDAPAKEEPKQADVPAAVTAAAATTPAAEDAAAKATAQPPTETGESSQAEENIEAVDETKPKESARQDEGKEEEPEADQEHA",
